Measured values reported in patent US20240025993A1 (Novartis, published 2024).

Experiments:
[1] = target: T1, human Fc gamma receptor 3A, V158 variant (human, UniProt P08637 17-208); assay: SPR (Biacore T200), antibody amine-coupled on CM5 chip, receptor as analyte
T1 construct: also called hFcgammaRIIIA V158; FcγR3A (V158)
Procedure: (§1) Binding to human C1q was evaluated. All SPR buffers were prepared using deionized water. The samples were prepared in running buffer PBS pH 7.4 with 0.005% Tween-20. SPR measurements were measured on a Biacore T200 (GE-Healthcare Life Sciences) controlled by Biacore T200 control software version 2.0.1. Surface plasmon resonance was conducted using a Biacore T200 to assess binding affinity of antibody IgG1 WT and variants to human Fc receptors, including FcγR1A, and FcγR3A (V158) and human C1q.
(§2) The antibodies were covalently immobilized on a CM5 sensor chip whereas Fc gamma receptors or human C1q served as analytes in solution (FIG. 38). For Fc gamma receptors binding evaluation (method 1), antibodies were diluted in 10 mM sodium acetate pH 4 and immobilized at a density of approximately 950 resonance units (RU's) on the CM5 sensor chip applying a standard amine coupling procedure. Flow cell 1 was blank immobilized to serve as a reference. The kinetic binding data were collected by subsequent injections of 1:2 dilution series of the human Fc gamma receptors on all flow cells at a flow rate of 30 μl/min and at a temperature of 25° C. The Fc gamma receptors were diluted in the running buffer at concentrations ranging from 0.2 nM to 1000 nM (e.g. FcγR1A: 0.2 to 100 nM, FcγR3A V158: 1.95 to 1000 nM). The chip surface was regenerated using 20 mM glycine pH 2.0 solution after each measuring cycle. For human C1q binding evaluation (method 2), antibodies were diluted in 10 mM sodium acetate pH 4 and immobilized at a density of approximately 7000 resonance units (RU's) on the CM5 sensor chip applying a standard amine coupling procedure. Flow cell 1 was blank immobilized to serve as a reference. The kinetic binding data were collected by subsequent injections of 1:2 dilution series of the human C1q on all flow cells at a flow rate of 30 μl/min and at a temperature of 25° C. The human C1q was diluted in the running buffer at concentrations ranging from 0.49 nM to 250 nM. The chip surface was regenerated using 50 mM NaOH solution after each measuring cycle. Zero concentration samples (blank runs) were measured for both methods to allow double-referencing during data evaluation.
(§3) Data were evaluated using the Biacore T200 evaluation software.

[2] = target: T2, human Fc gamma receptor 1A (human, UniProt P12314 16-288, limits assumed); assay: as above
T2 construct: also called hFcgammaRIA; hFcγRIA
Procedure: as §1, §2, §3

human C1q = target: T3, human C1q (human, UniProt P02745 23-245; P02746 28-253; P02747 29-245); assay: SPR (Biacore T200), antibody amine-coupled on CM5 chip, C1q as analyte
T3 construct: also called hC1q
Procedure: as §1, §2, §3

T2 sequence (P12314 16-288 limits assumed): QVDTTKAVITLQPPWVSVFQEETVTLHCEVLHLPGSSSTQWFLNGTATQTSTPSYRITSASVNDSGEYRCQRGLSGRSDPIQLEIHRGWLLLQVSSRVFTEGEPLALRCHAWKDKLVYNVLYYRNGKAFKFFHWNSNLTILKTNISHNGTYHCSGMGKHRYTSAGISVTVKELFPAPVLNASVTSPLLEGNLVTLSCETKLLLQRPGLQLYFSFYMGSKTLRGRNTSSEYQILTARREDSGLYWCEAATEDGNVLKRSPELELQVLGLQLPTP
T3 sequence (P02745 23-245 limits assumed, chain 1 of 3): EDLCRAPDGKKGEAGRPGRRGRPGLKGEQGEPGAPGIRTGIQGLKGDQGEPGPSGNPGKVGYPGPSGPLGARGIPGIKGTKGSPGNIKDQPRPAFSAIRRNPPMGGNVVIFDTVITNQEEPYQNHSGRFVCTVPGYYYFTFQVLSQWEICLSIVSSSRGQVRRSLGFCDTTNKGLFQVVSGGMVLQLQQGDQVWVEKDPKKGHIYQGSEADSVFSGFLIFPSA
T3 sequence (P02746 28-253 limits assumed, chain 2 of 3): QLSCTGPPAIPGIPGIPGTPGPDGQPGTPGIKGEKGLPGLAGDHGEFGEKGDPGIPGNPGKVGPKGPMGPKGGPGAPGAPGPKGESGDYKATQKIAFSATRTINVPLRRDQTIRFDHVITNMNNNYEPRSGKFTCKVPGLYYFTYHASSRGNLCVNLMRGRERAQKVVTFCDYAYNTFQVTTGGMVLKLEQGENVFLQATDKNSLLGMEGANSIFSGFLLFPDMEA
T3 sequence (P02747 29-245 limits assumed, chain 3 of 3): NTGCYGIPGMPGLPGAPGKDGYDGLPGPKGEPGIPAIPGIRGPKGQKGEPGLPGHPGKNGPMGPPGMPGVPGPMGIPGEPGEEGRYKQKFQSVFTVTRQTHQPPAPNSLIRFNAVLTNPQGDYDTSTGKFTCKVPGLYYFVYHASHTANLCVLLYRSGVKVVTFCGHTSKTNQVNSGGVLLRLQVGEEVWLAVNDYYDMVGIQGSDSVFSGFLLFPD
T1 sequence (P08637 other isoform, or with tags, fused parts or gaps mutant): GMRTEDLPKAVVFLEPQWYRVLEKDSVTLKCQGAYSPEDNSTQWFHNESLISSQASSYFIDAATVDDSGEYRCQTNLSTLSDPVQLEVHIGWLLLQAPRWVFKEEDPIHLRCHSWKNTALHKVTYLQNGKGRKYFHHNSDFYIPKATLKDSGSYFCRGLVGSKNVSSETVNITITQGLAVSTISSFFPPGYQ

Row | Binder | Maximum response at 1000 nM hFcgammaRIIIA V158 (RU) [1] | Maximum response at 100 nM hFcgammaRIA (RU) [2] | Maximum response at 250 nM hC1q (RU) (human C1q)
1 | Anti-CD3 human IgG1 antibody, wild type Fc (antibody, also called WT; WT IgG1) heavy: not shown light: QAVVTQEPSLTVSPGGTVTLTCRSSTGAVTTSNYANWVQQKPGQAPRGLIGGTNKRAPWTPARFSGSLLGDKAALTLSGAQPEDEAEYFCALWYSNLWVFGGGTKLTVLGQPKAAPSVTLFPPSSEELQANKATLVCLISDFYPGAVTVAWKADSSPVKAGVETTTPSKQSNNKYAASSYLSLTPEQWKSHRSYSCQVTHEGSTVEKTVAPTECS | 79 RU | 193 RU | 680 RU
2 | Anti-CD3 human IgG1 antibody, DAPASK Fc variant (D265A/P329A/S267K) (antibody, also called DAPASK-IgG1; FCV-5) heavy: EVQLVESGGGLVQPGGSLKLSCAASGFTFNTYAMNWVRQASGKGLEWVGRIRSKYNNYATYYADSVKDRFTISRDDSKSTLYLQMNSLKTEDTAVYYCVRHGNFGNSYVSWFAYWGQGTLVTVSSASTKGPSVFPLAPSSKSTSGGTAALGCLVKDYFPEPVTVSWNSGALTSGVHTFPAVLQSSGLYSLSSVVTVPSSSLGTQTYICNVNHKPSNTKVDKRVEPKSCDKTHTCPPCPAPELLGGPSVFLFPPKPKDTLMISRTPEVTCVVVAVKHEDPEVKFNWYVDGVEVHNAKTKPREEQYNSTYRVVSVLTVLHQDWLNGKEYKCKVSNKALAAPIEKTISKAKGQPREPQVYTLPPSRDELTKNQVSLTCLVKGFYPSDIAVEWESNGQPENNYKTTPPVLDSDGSFFLYSKLTVDKSRWQQGNVFSCSVMHEALHNHYTQKSLSLSPGK light: QAVVTQEPSLTVSPGGTVTLTCRSSTGAVTTSNYANWVQQKPGQAPRGLIGGTNKRAPWTPARFSGSLLGDKAALTLSGAQPEDEAEYFCALWYSNLWVFGGGTKLTVLGQPKAAPSVTLFPPSSEELQANKATLVCLISDFYPGAVTVAWKADSSPVKAGVETTTPSKQSNNKYAASSYLSLTPEQWKSHRSYSCQVTHEGSTVEKTVAPTECS | 15 RU |  | 86 RU
3 | Anti-CD3 human IgG1 antibody, DAPA Fc variant (D265A/P329A) (antibody, also called DAPA-IgG1; FCV-8) heavy: not shown light: QAVVTQEPSLTVSPGGTVTLTCRSSTGAVTTSNYANWVQQKPGQAPRGLIGGTNKRAPWTPARFSGSLLGDKAALTLSGAQPEDEAEYFCALWYSNLWVFGGGTKLTVLGQPKAAPSVTLFPPSSEELQANKATLVCLISDFYPGAVTVAWKADSSPVKAGVETTTPSKQSNNKYAASSYLSLTPEQWKSHRSYSCQVTHEGSTVEKTVAPTECS | 15 RU | 63 RU | 85 RU
4 | Anti-CD3 human IgG1 antibody, DANAPA Fc variant (D265A/N297A/P329A) (antibody, Variant made by PCR mutagenesis of the anti-CD3 WT IgG1 heavy chain; also called DANAPA-IgG1; FCV-9) heavy: EVQLVESGGGLVQPGGSLKLSCAASGFTFNTYAMNWVRQASGKGLEWVGRIRSKYNNYATYYADSVKDRFTISRDDSKSTLYLQMNSLKTEDTAVYYCVRHGNFGNSYVSWFAYWGQGTLVTVSSASTKGPSVFPLAPSSKSTSGGTAALGCLVKDYFPEPVTVSWNSGALTSGVHTFPAVLQSSGLYSLSSVVTVPSSSLGTQTYICNVNHKPSNTKVDKRVEPKSCDKTHTCPPCPAPELLGGPSVFLFPPKPKDTLMISRTPEVTCVVVAVSHEDPEVKFNWYVDGVEVHNAKTKPREEQYASTYRVVSVLTVLHQDWLNGKEYKCKVSNKALAAPIEKTISKAKGQPREPQVYTLPPSRDELTKNQVSLTCLVKGFYPSDIAVEWESNGQPENNYKTTPPVLDSDGSFFLYSKLTVDKSRWQQGNVFSCSVMHEALHNHYTQKSLSLSPGK light: QAVVTQEPSLTVSPGGTVTLTCRSSTGAVTTSNYANWVQQKPGQAPRGLIGGTNKRAPWTPARFSGSLLGDKAALTLSGAQPEDEAEYFCALWYSNLWVFGGGTKLTVLGQPKAAPSVTLFPPSSEELQANKATLVCLISDFYPGAVTVAWKADSSPVKAGVETTTPSKQSNNKYAASSYLSLTPEQWKSHRSYSCQVTHEGSTVEKTVAPTECS | 31 RU |  | 29 RU
5 | Anti-CD3 human IgG1 antibody, LALASKPA Fc variant (L234A/L235A/S267K/P329A) (antibody, also called FCV-4) heavy: not shown light: QAVVTQEPSLTVSPGGTVTLTCRSSTGAVTTSNYANWVQQKPGQAPRGLIGGTNKRAPWTPARFSGSLLGDKAALTLSGAQPEDEAEYFCALWYSNLWVFGGGTKLTVLGQPKAAPSVTLFPPSSEELQANKATLVCLISDFYPGAVTVAWKADSSPVKAGVETTTPSKQSNNKYAASSYLSLTPEQWKSHRSYSCQVTHEGSTVEKTVAPTECS | 20 RU |  | 95 RU
6 | Anti-CD3 human IgG1 antibody, LALAPG Fc variant (L234A/L235A/P329G) (antibody, also called LALAPG-IgG1; FCV-3) heavy: not shown light: QAVVTQEPSLTVSPGGTVTLTCRSSTGAVTTSNYANWVQQKPGQAPRGLIGGTNKRAPWTPARFSGSLLGDKAALTLSGAQPEDEAEYFCALWYSNLWVFGGGTKLTVLGQPKAAPSVTLFPPSSEELQANKATLVCLISDFYPGAVTVAWKADSSPVKAGVETTTPSKQSNNKYAASSYLSLTPEQWKSHRSYSCQVTHEGSTVEKTVAPTECS | 33 RU |  | 245 RU
7 | Anti-CD3 human IgG1 antibody, GADAPASK Fc variant (G237A/D265A/P329A/S267K) (antibody, also called FCV-7) heavy: EVQLVESGGGLVQPGGSLKLSCAASGFTFNTYAMNWVRQASGKGLEWVGRIRSKYNNYATYYADSVKDRFTISRDDSKSTLYLQMNSLKTEDTAVYYCVRHGNFGNSYVSWFAYWGQGTLVTVSSASTKGPSVFPLAPSSKSTSGGTAALGCLVKDYFPEPVTVSWNSGALTSGVHTFPAVLQSSGLYSLSSVVTVPSSSLGTQTYICNVNHKPSNTKVDKRVEPKSCDKTHTCPPCPAPELLGAPSVFLFPPKPKDTLMISRTPEVTCVVVAVKHEDPEVKFNWYVDGVEVHNAKTKPREEQYNSTYRVVSVLTVLHQDWLNGKEYKCKVSNKALAAPIEKTISKAKGQPREPQVYTLPPSRDELTKNQVSLTCLVKGFYPSDIAVEWESNGQPENNYKTTPPVLDSDGSFFLYSKLTVDKSRWQQGNVFSCSVMHEALHNHYTQKSLSLSPGK light: QAVVTQEPSLTVSPGGTVTLTCRSSTGAVTTSNYANWVQQKPGQAPRGLIGGTNKRAPWTPARFSGSLLGDKAALTLSGAQPEDEAEYFCALWYSNLWVFGGGTKLTVLGQPKAAPSVTLFPPSSEELQANKATLVCLISDFYPGAVTVAWKADSSPVKAGVETTTPSKQSNNKYAASSYLSLTPEQWKSHRSYSCQVTHEGSTVEKTVAPTECS | 12 RU |  | 168 RU
8 | Anti-CD3 human IgG1 antibody, GADAPA Fc variant (G237A/D265A/P329A) (antibody, also called GADAPA-IgG1; FCV-6) heavy: EVQLVESGGGLVQPGGSLKLSCAASGFTFNTYAMNWVRQASGKGLEWVGRIRSKYNNYATYYADSVKDRFTISRDDSKSTLYLQMNSLKTEDTAVYYCVRHGNFGNSYVSWFAYWGQGTLVTVSSASTKGPSVFPLAPSSKSTSGGTAALGCLVKDYFPEPVTVSWNSGALTSGVHTFPAVLQSSGLYSLSSVVTVPSSSLGTQTYICNVNHKPSNTKVDKRVEPKSCDKTHTCPPCPAPELLGAPSVFLFPPKPKDTLMISRTPEVTCVVVAVSHEDPEVKFNWYVDGVEVHNAKTKPREEQYNSTYRVVSVLTVLHQDWLNGKEYKCKVSNKALAAPIEKTISKAKGQPREPQVYTLPPSRDELTKNQVSLTCLVKGFYPSDIAVEWESNGQPENNYKTTPPVLDSDGSFFLYSKLTVDKSRWQQGNVFSCSVMHEALHNHYTQKSLSLSPGK light: QAVVTQEPSLTVSPGGTVTLTCRSSTGAVTTSNYANWVQQKPGQAPRGLIGGTNKRAPWTPARFSGSLLGDKAALTLSGAQPEDEAEYFCALWYSNLWVFGGGTKLTVLGQPKAAPSVTLFPPSSEELQANKATLVCLISDFYPGAVTVAWKADSSPVKAGVETTTPSKQSNNKYAASSYLSLTPEQWKSHRSYSCQVTHEGSTVEKTVAPTECS | 9 RU |  | 203 RU
9 | Anti-CD3 human IgG1 antibody, LALAPA Fc variant (L234A/L235A/P329A) (antibody, also called LALAPA-IgG1; FCV-1) heavy: not shown light: QAVVTQEPSLTVSPGGTVTLTCRSSTGAVTTSNYANWVQQKPGQAPRGLIGGTNKRAPWTPARFSGSLLGDKAALTLSGAQPEDEAEYFCALWYSNLWVFGGGTKLTVLGQPKAAPSVTLFPPSSEELQANKATLVCLISDFYPGAVTVAWKADSSPVKAGVETTTPSKQSNNKYAASSYLSLTPEQWKSHRSYSCQVTHEGSTVEKTVAPTECS | 19 RU | 26 RU | 270 RU
10 | Anti-CD3 human IgG1 antibody, LALAGA Fc variant (L234A/L235A/G237A) (antibody, also called LALAGA-IgG1; FCV-2) heavy: not shown light: QAVVTQEPSLTVSPGGTVTLTCRSSTGAVTTSNYANWVQQKPGQAPRGLIGGTNKRAPWTPARFSGSLLGDKAALTLSGAQPEDEAEYFCALWYSNLWVFGGGTKLTVLGQPKAAPSVTLFPPSSEELQANKATLVCLISDFYPGAVTVAWKADSSPVKAGVETTTPSKQSNNKYAASSYLSLTPEQWKSHRSYSCQVTHEGSTVEKTVAPTECS | 25 RU |  | 335 RU
